In assay [1] the target is human c-Ret (human, UniProt P07949 29-1114, phosphorylation at Y1016 is the readout). Put plainly: cell-based or functional assay.
In assay [2] the target is T1, Recombinant Human GFRα-1/GDNF Rα-1 Fc Chimera (human, UniProt P56159 25-429).
T1 construct: Purchased Fc chimera; It was captured on protein A in Biacore and coated on the plate in ELISA; also called GFRα1-Fc; recombinant human GFRα1-Fc chimera, carrier-free; not shown: Fc part of a purchased Fc chimera
T1 sequence (looked up): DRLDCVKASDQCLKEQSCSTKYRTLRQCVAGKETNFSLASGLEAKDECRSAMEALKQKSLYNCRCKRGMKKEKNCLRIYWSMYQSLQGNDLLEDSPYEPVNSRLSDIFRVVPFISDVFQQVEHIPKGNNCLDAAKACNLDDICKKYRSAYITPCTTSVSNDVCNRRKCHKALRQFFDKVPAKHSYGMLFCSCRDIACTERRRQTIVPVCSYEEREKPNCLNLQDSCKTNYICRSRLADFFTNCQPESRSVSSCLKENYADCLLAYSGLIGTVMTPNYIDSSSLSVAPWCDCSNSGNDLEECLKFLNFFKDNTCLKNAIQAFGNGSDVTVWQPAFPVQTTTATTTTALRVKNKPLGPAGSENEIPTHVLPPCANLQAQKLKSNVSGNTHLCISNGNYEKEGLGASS
Put plainly: ELISA, plate-bound human GFRα1-Fc; 4 C sample. As to the method:
GDNF wild type and variants are tested in an ELISA assay, in which binding of the GDNF proteins to the plate-bound receptor (GFRα1) is measured. A “no GDNF” condition and/or an “irrelevant protein” condition are used as negative controls.
(§1) Each well of a 96-well plate (Greiner 655081 Immunobind ELISA plates) is coated with 70 μl of human GFRα1 (recombinant human GFRα1-Fc chimera, carrier-free) at 1 μg/ml in carbonate buffer, pH 9.6. If an irrelevant receptor is coated, it is an irrelevant Fc chimera and is coated at the same concentration as GFRα1. The plates are sealed and incubated at 4° C. overnight. The wells are aspirated and washed twice with washing buffer (20 mM Tris (hydroxymethyl) aminomethane, pH 7.4, 0.15 M NaCl, 0.1% Tween-20), using an automatic plate washer. The plates are blocked with 200 μl blocking buffer per well (3% Carnation Instant milk in the above washing buffer) for at least 1 hour at room temperature. Plates are washed twice with washing buffer.
GDNF proteins are serially diluted into blocking buffer at an appropriate concentration range, typically beginning at 5 μg/ml and serially diluting 1:10. A no GDNF control is used, which consists of blocking buffer alone. 50 μl of each GDNF solution is added to the GFRα1 coated wells in triplicate. The plates are incubated for 1.5 hours at room temperature. The wells are then washed 3 times with washing buffer.
(In general: ELISA stands for enzyme-linked immunosorbent assay.)

Assay [3] has as its target T1, Recombinant Human GFRα-1/GDNF Rα-1 Fc …. Put plainly: Biacore (SPR), GFRα-1; 4 C sample of the 4-week stability comparison.
Assay [4] shares this target. Nature of the assay: ELISA, plate-bound human GFRα1-Fc; lower end of the 95% confidence range, n = 8. Here is the method: as §1, with “buffer. […]” for “buffer.”
(§2) A 50 μl aliquot of horseradish peroxidase-conjugated streptavidin (Jackson ImmunoResearch, catalog #016-030-084), diluted 1:1000 in blocking buffer, is added to each well and incubated for 20-30 minutes at room temperature. […] The absorbance of the wells is read at 490 nm on a Molecular Devices SpectraMax250 plate reader. The average absorbance for the triplicate wells for each condition are determined, and the resulting values are processed for EC₅₀ calculation with Graph Pad Prism software to provide a 95% confidence range.

Assay [5] has the same target. Put plainly: ELISA, plate-bound human GFRα1-Fc; upper end of the 95% confidence range, n = 8. Here is the method: as §1, with “buffer. […]” for “buffer.”
as §2

The target in assay [6] is T2, Recombinant Human GFRα-2/GDNF Rα-2 Fc Chimera (human, UniProt O00451 22-441).
T2 construct: Purchased Fc chimera; not shown: Fc part of a purchased Fc chimera
T2 sequence (looked up): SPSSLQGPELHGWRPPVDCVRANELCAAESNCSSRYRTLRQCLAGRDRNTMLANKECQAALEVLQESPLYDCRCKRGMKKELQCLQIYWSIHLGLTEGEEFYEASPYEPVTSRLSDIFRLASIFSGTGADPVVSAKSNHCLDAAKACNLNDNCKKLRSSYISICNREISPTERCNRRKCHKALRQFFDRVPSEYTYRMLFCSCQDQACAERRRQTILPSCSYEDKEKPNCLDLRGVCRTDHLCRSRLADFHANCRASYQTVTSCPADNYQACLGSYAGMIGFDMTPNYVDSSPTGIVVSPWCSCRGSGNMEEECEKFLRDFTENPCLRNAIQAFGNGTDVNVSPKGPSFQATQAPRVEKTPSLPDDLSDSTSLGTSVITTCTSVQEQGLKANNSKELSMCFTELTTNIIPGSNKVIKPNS
Put plainly: SPR (Biacore 2000), human GFRα2-Fc captured on protein A, GDNF as analyte, 1:1 Langmuir, 25 C. Here is the method:
(§3) A Biacore® 2000 instrument is used to measure the binding kinetics of GDNFv to human and rat GDNF family receptors (GFRα1 and GFRα2). Measurements are performed at 25° C. Samples are dissolved in HBS-EP buffer (150 mM sodium chloride, 3 mM EDTA, 0.005% (w/v) surfactant P-20, pH 7.4). Protein A, Staphylococcus aureus is immobilized on flow cells 1 to 4 of a CM4 sensor chip (GE Healthcare #BR-1005-39) at a level of ˜200 response units (RUs) using amine coupling chemistry to capture GFR Fc chimera (Recombinant Human GFRα-1/GDNF Rα-1 Fc Chimera; Recombinant Human GFRα-2/GDNF Rα-2 Fc Chimera; Recombinant Rat GFRα-1/GDNF Rα-1 Fc Chimera; Recombinant Mouse GFRα-2/GDNF Rα-2 Fc Chimera).
(§4) Binding is evaluated using multiple cycles. Each cycle consists of the following steps: 1) injection of about 10 μL of GFR at a concentration of ˜1.0 μg/mL and a flow rate of 10 μL/min., aiming at a capture of 120-150 RUs; 2) injection of 250 μL of GDNFv at a flow rate of 50 μL/min., in a final concentration rage between 10 nM and 0.04 nM followed by […]. for dissociation; and 3) regeneration using about 30 μL of 10 mM glycine hydrochloride, pH 1.5. Association and dissociation rates for each cycle are evaluated using a “1:1 (Langmuir) binding” model in the BIAevaluation software, version 4.1.
(In general: In SPR one partner is held on a chip, and binding of the other changes the refractive index at the surface.)

Assay [7] deals with T1, Recombinant Human GFRα-1/GDNF Rα-1 Fc …. Put plainly: SPR (Biacore 2000), GFRα1-Fc captured on protein A, GDNF as analyte, 1:1 Langmuir, 25 C; in the presence of 400 mM NaCl.
The target is the same in assay [8]. Put plainly: SPR (Biacore 2000), GFRα1-Fc captured on protein A, GDNFv as analyte, 1:1 Langmuir, 25 C. As to the method: as §3, §4
For assay [9], the target named is T3, Recombinant Rat GFRα-1/GDNF Rα-1 Fc Chimera (rat, UniProt Q62997 25-445).
T3 construct: Purchased Fc chimera; not shown: Fc part of a purchased Fc chimera
T3 sequence (looked up): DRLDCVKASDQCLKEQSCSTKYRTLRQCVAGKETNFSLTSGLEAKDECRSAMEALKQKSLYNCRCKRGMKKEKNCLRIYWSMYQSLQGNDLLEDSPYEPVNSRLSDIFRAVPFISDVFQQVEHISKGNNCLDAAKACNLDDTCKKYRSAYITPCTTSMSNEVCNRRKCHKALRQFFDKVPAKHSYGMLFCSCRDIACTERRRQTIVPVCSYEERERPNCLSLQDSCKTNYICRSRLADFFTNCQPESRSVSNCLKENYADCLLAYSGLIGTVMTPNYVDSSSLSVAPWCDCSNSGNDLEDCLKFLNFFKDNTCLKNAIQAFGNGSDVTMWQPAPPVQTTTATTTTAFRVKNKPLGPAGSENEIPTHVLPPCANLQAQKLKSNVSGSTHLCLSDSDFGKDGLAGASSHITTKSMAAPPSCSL
Put plainly: SPR (Biacore 2000), rat GFRα1-Fc captured on protein A, GDNFv as analyte, 1:1 Langmuir, 25 C. As to the method: as §3, §4

Assay [10] concerns the target T2, Recombinant Human GFRα-2/GDNF Rα-2 Fc …. Nature of the assay: SPR (Biacore 2000), human GFRα2-Fc captured on protein A, GDNFv as analyte, 1:1 Langmuir, 25 C. As to the method: as §3, §4

Sequence of human c-Ret (P07949 29-1114): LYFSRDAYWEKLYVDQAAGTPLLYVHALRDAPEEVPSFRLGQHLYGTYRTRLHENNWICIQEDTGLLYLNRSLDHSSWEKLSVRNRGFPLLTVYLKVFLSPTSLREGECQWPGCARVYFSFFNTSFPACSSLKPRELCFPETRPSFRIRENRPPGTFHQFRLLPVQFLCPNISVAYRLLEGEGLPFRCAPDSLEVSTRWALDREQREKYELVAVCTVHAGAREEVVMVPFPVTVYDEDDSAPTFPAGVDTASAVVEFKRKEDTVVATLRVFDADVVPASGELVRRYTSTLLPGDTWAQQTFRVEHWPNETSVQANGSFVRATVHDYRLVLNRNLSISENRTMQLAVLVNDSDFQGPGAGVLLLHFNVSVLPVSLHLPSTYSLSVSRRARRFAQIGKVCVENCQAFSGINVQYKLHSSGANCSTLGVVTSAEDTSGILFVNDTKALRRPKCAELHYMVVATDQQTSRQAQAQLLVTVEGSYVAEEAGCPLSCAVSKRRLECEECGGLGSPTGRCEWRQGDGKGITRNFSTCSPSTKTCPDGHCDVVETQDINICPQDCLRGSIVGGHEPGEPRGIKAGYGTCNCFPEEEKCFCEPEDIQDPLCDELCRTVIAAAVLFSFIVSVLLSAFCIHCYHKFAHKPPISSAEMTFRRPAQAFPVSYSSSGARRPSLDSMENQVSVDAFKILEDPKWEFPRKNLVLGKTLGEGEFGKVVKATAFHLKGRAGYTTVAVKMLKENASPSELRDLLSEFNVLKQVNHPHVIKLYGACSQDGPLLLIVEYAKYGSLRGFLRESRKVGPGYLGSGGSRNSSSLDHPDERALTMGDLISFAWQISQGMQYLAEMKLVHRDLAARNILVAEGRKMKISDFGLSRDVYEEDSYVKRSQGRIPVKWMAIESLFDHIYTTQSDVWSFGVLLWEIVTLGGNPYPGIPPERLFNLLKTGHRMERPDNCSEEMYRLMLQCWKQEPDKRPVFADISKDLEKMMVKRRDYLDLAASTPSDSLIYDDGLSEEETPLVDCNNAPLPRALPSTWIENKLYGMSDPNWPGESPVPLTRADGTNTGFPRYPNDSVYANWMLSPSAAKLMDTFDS

B1: E. Coli-WT-GDNF (SEQ ID NO: 3) (ligand)
chain: MSPDKQMAVLPRRERNRQAAAANPENSRGKGRRGQRGKNRGCVLTAIHLNVTDLGLGYETKEELIFRYCSGSCDAAETTYDKILKNLSRNRRLVSDKVGQACCRPIAFDDDLSFLDDNLVYHILRKHSAKRCGCI
notes: Expressed in E. coli, not glycosylated; also called WT E. coli GDNF; WT-E. coli GDNF
As for B1, the “c-Ret phosphorylation at Y1016, EC50” value in assay [1] was in the range of 8 to 15 ng/mL. Besides, the EC50 (as a rule, the concentration needed to bring the measured effect to its halfway point) in assay [2] is 0.4 nM; in assay [4], 0.3 to 0.4 nM; in [5] it was 0.3 to 0.4 nM. In addition, the results for the Kd in assay [3], in assay [6] and in [7] were 0.064 nM, 0.1 nM and 0.064 nM, respectively. The values for the koff in assay [6] and in assay [7] were 0.00026 s⁻¹ and 0.00035 s⁻¹, respectively. Besides, the results for the kon in [6] and in [7] were 2.4e+06 M⁻¹ s⁻¹ and 6e+06 M⁻¹ s⁻¹, respectively.

B2: E. coli-Δ31-N38Q-D95E-GDNF (SEQ ID NO: 9) (ligand)
chain: RGQRGKQRGCVLTAIHLNVTDLGLGYETKEELIFRYCSGSCDAAETTYDKILKNLSRNRRLVSEKVGQACCRPIAFDDDLSFLDDNLVYHILRKHSAKRCGCI
notes: also called GDNF variant 2; clone D9
Turning to B2, in [8], the Kd (commonly the constant that tells how readily two partners part at equilibrium) is 0.047 nM; the koff (commonly the first-order rate constant of dissociation) stood at 0.00016 s⁻¹; the kon (as a rule, the rate constant with which the complex forms) came to 3.9e+06 M⁻¹ s⁻¹.

B3: CHO Δ31-N38Q-K84A-R88K-R90K-D95E-K125E-R130E GDNF (SEQ ID NO: 15) (ligand)
chain: RGQRGKQRGCVLTAIHLNVTDLGLGYETKEELIFRYCSGSCDAAETTYDKILANLSKNKRLVSEKVGQACCRPIAFDDDLSFLDDNLVYHILREHSAKECGCI
As for B3, the “c-Ret phosphorylation at Y1016, EC50” value in assay [1] was in the range of 8 to 15 ng/mL.

B4: E. Coli-Δ31-N38Q-K84A-R88K-R90K-D95E-GDNF (SEQ ID NO: 12) (ligand)
chain: RGQRGKQRGCVLTAIHLNVTDLGLGYETKEELIFRYCSGSCDAAETTYDKILANLSKNKRLVSEKVGQACCRPIAFDDDLSFLDDNLVYHILRKHSAKRCGCI
notes: also called Δ31-N38Q-KAKKE; GDNF variant 3
On to B4, for which, in [8], the Kd came out at 0.035 nM, the koff stood at 0.00016 s⁻¹ and the kon turned out to be 5e+06 M⁻¹ s⁻¹.

B5: CHO-Δ31-N38Q-K84A-R88K-R90K-D95E-GDNF (SEQ ID NO: 12) (ligand)
chain: RGQRGKQRGCVLTAIHLNVTDLGLGYETKEELIFRYCSGSCDAAETTYDKILANLSKNKRLVSEKVGQACCRPIAFDDDLSFLDDNLVYHILRKHSAKRCGCI
modifications: N-glycosylated at N49 (numbering of mature GDNF)
notes: Expressed in CHO cells; also called Δ31-N38Q-KAKKE; GDNF variant 3
Consider B5, for which the “c-Ret phosphorylation at Y1016, EC50” value in assay [1] lay within 8 to 15 ng/mL. For the same molecule, the equilibrium dissociation constant (Kd) in assay [3] came to 0.029 nM; in assay [8], 0.029 nM; in [9], 0.021 nM; in assay [10] it was 0.044 nM. The koff in assay [8] was determined as 0.00014 s⁻¹; in assay [9], 0.00021 s⁻¹; in assay [10] it was 0.00042 s⁻¹. Besides, the kon in [8] came to 6.2e+06 M⁻¹ s⁻¹; in [9] it was 9.9e+06 M⁻¹ s⁻¹; in assay [10], 9.6e+06 M⁻¹ s⁻¹.

B6: E. Coli-Δ31-GDNF (SEQ ID NO: 8) (ligand)
chain: RGQRGKNRGCVLTAIHLNVTDLGLGYETKEELIFRYCSGSCDAAETTYDKILKNLSRNRRLVSDKVGQACCRPIAFDDDLSFLDDNLVYHILRKHSAKRCGCI
notes: The NdeI start codon encodes a Met before R32; also called Delta-31 GDNF; Variant 1
Consider B6, for which, in [8], the Kd was 0.044 nM, the koff came to 0.00017 s⁻¹ and the kon worked out at 4.2e+06 M⁻¹ s⁻¹.

The record behind these values is patent US20130324474A1 (Eli Lilly, published 2013).
